Test results: publication PMC4100735

Molecular target: TNF receptor-associated factor 2 (TRAF2) (human (endogenous in HEK-293T)) (UniProt Q12933)
Assay: co-IP; lysates of HEK-293T cells transfected with Tyr52 or Cys52 FBXO7-EGFP and treated with MG-132 (5 uM, 24 h); 100 ug protein immunoprecipitated with mouse anti-TRAF2 antibody on protein G beads in IP lysis buffer (25 mM Tris-HCl pH 7.4, 150 mM NaCl, 1% NP-40, 1 mM EDTA, 5% glycerol); blot with anti-EGFP; normal IgG as negative control

UniProt Q12933, sequence (Q12933 whole entry): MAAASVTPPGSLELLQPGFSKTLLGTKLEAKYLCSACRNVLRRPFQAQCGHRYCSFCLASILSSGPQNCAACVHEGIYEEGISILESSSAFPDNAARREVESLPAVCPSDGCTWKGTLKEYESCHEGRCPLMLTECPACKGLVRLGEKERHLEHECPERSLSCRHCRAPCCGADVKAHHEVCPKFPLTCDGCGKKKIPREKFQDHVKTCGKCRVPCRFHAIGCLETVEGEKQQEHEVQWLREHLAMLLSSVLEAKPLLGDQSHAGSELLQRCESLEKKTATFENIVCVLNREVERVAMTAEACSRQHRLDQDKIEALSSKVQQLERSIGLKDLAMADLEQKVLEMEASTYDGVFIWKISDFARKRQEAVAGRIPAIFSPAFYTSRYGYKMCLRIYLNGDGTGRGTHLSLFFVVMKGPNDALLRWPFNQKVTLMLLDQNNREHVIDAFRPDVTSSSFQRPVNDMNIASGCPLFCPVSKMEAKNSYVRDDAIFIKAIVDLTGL

Work on “Cys52 FBXO7-EGFP (F-box only protein 7 Y52C variant, isoform 1, EGFP-tagged) (from UniProt Q9Y3I1-1 1-522) (natural protein)” yielded an FBXO7-TRAF2 interaction in co-IP, percent of Tyr52 FBXO7-EGFP of 367%.
